Laboratory results as given in the Human Domainome abundance scans (Beltran et al. 2025).
± gives the uncertainty stated by the source.

B1: Segment polarity protein dishevelled homolog DVL-3, residues 2 to 81; numbered along this chain, Q92997 (parent)
chain: GETKIIYHLDGQETPYLVKLPLPAERVTLADFKGVLQRPSYKFFFKSMDDDFGVVKEEISDDNAKLPCFNGRVVSWLVSA

Variants of: B1
Assay: abundance fitness (aPCA) (normalised: wild type 0, dead -1); higher = more abundant; growth selection in yeast, the domain comes from the species named
Settings: Homo sapiens

Variant | abundance fitness
GETKIIYHLDGQETPYLVKLPLPAERVTLADFKGVLQRPSYKFFFKSMDDDFGVVKEEISDDNAKLPCFNGRVVEWLVSA [S75E] | -0.782 ± 0.22
GETKIIYHLDGQETPYLVKLPLPAERVTLADFKGVLQRPSYKFFFKSMDDDFGVVKEEISDDNAKLPCFNGRVVDWLVSA [S75D] | -0.723 ± 0.11
GETKIIYHLDGQETPYLVKLPLPAERVTLADFKGVLQRPSYKFFFKSMDDDFGVVKEEISDDNAKLPCFNGRVVGWLVSA [S75G] | -0.221 ± 0.063
GETKIIYHLDGQETPYLVKLPLPAERVTLADFKGVLQRPSYKFFFKSMDDDFGVVKEEISDDNAKLPCFNGRVVIWLVSA [S75I] | -0.459 ± 0.089
GETKIIYHLDGQETPYLVKLPLPAERVTLADFKGVLQRPSYKFFFKSMDDDFGVVKEEISDDNAKLPCFNGRVVFWLVSA [S75F] | -0.793 ± 0.12
GETKIIYHLDGQETPYLVKLPLPAERVTLADFKGVLQRPSYKFFFKSMDDDFGVVKEEISDDNAKLPCFNGRVVHWLVSA [S75H] | -0.6 ± 0.15
GETKIIYHLDGQETPYLVKLPLPAERVTLADFKGVLQRPSYKFFFKSMDDDFGVVKEEISDDNAKLPCFNGRVVCWLVSA [S75C] | 0.099 ± 0.05
GETKIIYHLDGQETPYLVKLPLPAERVTLADFKGVLQRPSYKFFFKSMDDDFGVVKEEISDDNAKLPCFNGRVVKWLVSA [S75K] | -0.967 ± 0.29
GETKIIYHLDGQETPYLVKLPLPAERVTLADFKGVLQRPSYKFFFKSMDDDFGVVKEEISDDNAKLPCFNGRMVSWLVSA [V73M] | -0.767 ± 0.26
GETKIIYHLDGQETPYLVKLPLPAERVTLADFKGVLQRPSYKFFFKSMDDDFGVVKEEISDDNAKLPCFNGRFVSWLVSA [V73F] | -0.684 ± 0.089
GETKIIYHLDGQETPYLVKLPLPAERVTLADFKGVLQRPSYKFFFKSMDDDFGVVKEEISDDNAKLPCFNGRYVSWLVSA [V73Y] | -0.909 ± 0.15
GETKIIYHLDGQETPYLVKLPLPAERVTLADFKGVLQRPSYKFFFKSMDDDFGVVKEEISDDNAKLPCFNGRQVSWLVSA [V73Q] | -0.477 ± 0.46
GETKIIYHLDGQETPYLVKLPLPAERVTLADFKGVLQRPSYKFFFKSMDDDFGVVKEEISDDNAKLPCFNGRIVSWLVSA [V73I] | 0.147 ± 0.059
GETKIIYHLDGQETPYLVKLPLPAERVTLADFKGVLQRPSYKFFFKSMDDDFGVVKEEISDDNAKLPCFNGRLVSWLVSA [V73L] | -0.56 ± 0.1
GETKIIYHLDGQETPYLVKLPLPAERVTLADFKGVLQRPSYKFFFKSMDDDFGVVKEEISDDNAKLPCFNGRGVSWLVSA [V73G] | -0.681 ± 0.099
GETKIIYHLDGQETPYLVKLPLPAERVTLADFKGVLQRPSYKFFFKSMDDDFGVVKEEISDDNAKLPCFNGREVSWLVSA [V73E] | -0.786 ± 0.24
GETKIIYHLDGQETPYLVKLPLPAERVTLADFKGVLQRPSYKFFFKSMDDDFGVVKEEISDDNAKLPCFNGRDVSWLVSA [V73D] | -0.501 ± 0.1
GETKIIYHLDGQETPYLVKLPLPAERVTLADFKGVLQRPSYKFFFKSMDDDFGVVKEEISDDNAKLPCFNGRSVSWLVSA [V73S] | -0.618 ± 0.088
GETKIIYHLDGQETPYLVKLPLPAERVTLADFKGVLQRPSYKFFFKSMDDDFGVVKEEISDDNAKLPCFNGRWVSWLVSA [V73W] | -0.589 ± 0.18
GETKIIYHLDGQETPYLVKLPLPAERVTLADFKGVLQRPSYKFFFKSMDDDFGVVKEEISDDNAKLPCFNGRCVSWLVSA [V73C] | -0.347 ± 0.085
GETKIIYHLDGQETPYLVKLPLPAERVTLADFKGVLQRPSYKFFFKSMDDDFGVVKEEISDDNAKLPCFNGRRVSWLVSA [V73R] | -0.592 ± 0.12
GETKIIYHLDGQETPYLVKLPLPAERVTLADFKGVLQRPSYKFFFKSMDDDFGVVKEEISDDNAKLPCFNGRNVSWLVSA [V73N] | -0.569 ± 0.11
GETKIIYHLDGQETPYLVKLPLPAERVTLADFKGVLQRPSYKFFFKSMDDDFGVVKEEISDDNAKLPCFNGRKVSWLVSA [V73K] | -1.01 ± 0.3

Variant | abundance fitness
GETKIIYHLDGQETPYLVKLPLPAERVTLADFKGVLQRPSYKFFFKSMDDDFGVVKEEISDDNAKLPCFNGRHVSWLVSA [V73H] | -0.573 ± 0.12
GETKIIYHLDGQETPYLVKLPLPAERVTLADFKGVLQRPSYKFFFKSMDDDFGVVKEEISDDNAKLPCFNGRAVSWLVSA [V73A] | -0.511 ± 0.12
GETKIIYHLDGQETPYLVKLPLPAERVTLADFKGVLQRPSYKFFFKSMDDDFGVVKEEISDDNAKLPCFNGRVNSWLVSA [V74N] | -0.511 ± 0.092
GETKIIYHLDGQETPYLVKLPLPAERVTLADFKGVLQRPSYKFFFKSMDDDFGVVKEEISDDNAKLPCFNGRVWSWLVSA [V74W] | -0.243 ± 0.12
GETKIIYHLDGQETPYLVKLPLPAERVTLADFKGVLQRPSYKFFFKSMDDDFGVVKEEISDDNAKLPCFNGRVMSWLVSA [V74M] | -0.198 ± 0.14
GETKIIYHLDGQETPYLVKLPLPAERVTLADFKGVLQRPSYKFFFKSMDDDFGVVKEEISDDNAKLPCFNGRVPSWLVSA [V74P] | -0.981 ± 0.27
GETKIIYHLDGQETPYLVKLPLPAERVTLADFKGVLQRPSYKFFFKSMDDDFGVVKEEISDDNAKLPCFNGRVGSWLVSA [V74G] | -0.716 ± 0.1
GETKIIYHLDGQETPYLVKLPLPAERVTLADFKGVLQRPSYKFFFKSMDDDFGVVKEEISDDNAKLPCFNGRVASWLVSA [V74A] | -0.585 ± 0.15
GETKIIYHLDGQETPYLVKLPLPAERVTLADFKGVLQRPSYKFFFKSMDDDFGVVKEEISDDNAKLPCFNGRVLSWLVSA [V74L] | -0.427 ± 0.088
GETKIIYHLDGQETPYLVKLPLPAERVTLADFKGVLQRPSYKFFFKSMDDDFGVVKEEISDDNAKLPCFNGRVKSWLVSA [V74K] | -0.953 ± 0.24
GETKIIYHLDGQETPYLVKLPLPAERVTLADFKGVLQRPSYKFFFKSMDDDFGVVKEEISDDNAKLPCFNGRVCSWLVSA [V74C] | -0.658 ± 0.12
GETKIIYHLDGQETPYLVKLPLPAERVTLADFKGVLQRPSYKFFFKSMDDDFGVVKEEISDDNAKLPCFNGRVHSWLVSA [V74H] | -0.249 ± 0.083
GETKIIYHLDGQETPYLVKLPLPAERVTLADFKGVLQRPSYKFFFKSMDDDFGVVKEEISDDNAKLPCFNGRVFSWLVSA [V74F] | -0.066 ± 0.056
GETKIIYHLDGQETPYLVKLPLPAERVTLADFKGVLQRPSYKFFFKSMDDDFGVVKEEISDDNAKLPCFNGRVRSWLVSA [V74R] | -0.446 ± 0.1
GETKIIYHLDGQETPYLVKLPLPAERVTLADFKGVLQRPSYKFFFKSMDDDFGVVKEEISDDNAKLPCFNGRVYSWLVSA [V74Y] | 0.236 ± 0.05
GETKIIYHLDGQETPYLVKLPLPAERVTLADFKGVLQRPSYKFFFKSMDDDFGVVKEEISDDNAKLPCFNGRVQSWLVSA [V74Q] | -0.777 ± 0.31
GETKIIYHLDGQETPYLVKLPLPAERVTLADFKGVLQRPSYKFFFKSMDDDFGVVKEEISDDNAKLPCFNGRVESWLVSA [V74E] | 0.195 ± 0.099
GETKIIYHLDGQETPYLVKLPLPAERVTLADFKGVLQRPSYKFFFKSMDDDFGVVKEEISDDNAKLPCFNGRVDSWLVSA [V74D] | -0.593 ± 0.12
GETKIIYHLDGQETPYLVKLPLPAERVTLADFKGVLQRPSYKFFFKSMDDDFGVVKEEISDDNAKLPCFNGTVVSWLVSA [R72T] | 0.318 ± 0.06
GETKIIYHLDGQETPYLVKLPLPAERVTLADFKGVLQRPSYKFFFKSMDDDFGVVKEEISDDNAKLPCFNGCVVSWLVSA [R72C] | 0.222 ± 0.054
GETKIIYHLDGQETPYLVKLPLPAERVTLADFKGVLQRPSYKFFFKSMDDDFGVVKEEISDDNAKLPCFNGNVVSWLVSA [R72N] | 0.029 ± 0.063
GETKIIYHLDGQETPYLVKLPLPAERVTLADFKGVLQRPSYKFFFKSMDDDFGVVKEEISDDNAKLPCFNGSVVSWLVSA [R72S] | 0.149 ± 0.046
GETKIIYHLDGQETPYLVKLPLPAERVTLADFKGVLQRPSYKFFFKSMDDDFGVVKEEISDDNAKLPCFNGKVVSWLVSA [R72K] | 0.102 ± 0.12

Variant | abundance fitness
GETKIIYHLDGQETPYLVKLPLPAERVTLADFKGVLQRPSYKFFFKSMDDDFGVVKEEISDDNAKLPCFNGQVVSWLVSA [R72Q] | 0.243 ± 0.12
GETKIIYHLDGQETPYLVKLPLPAERVTLADFKGVLQRPSYKFFFKSMDDDFGVVKEEISDDNAKLPCFNGIVVSWLVSA [R72I] | 0.269 ± 0.049
GETKIIYHLDGQETPYLVKLPLPAERVTLADFKGVLQRPSYKFFFKSMDDDFGVVKEEISDDNAKLPCFNGFVVSWLVSA [R72F] | 0.219 ± 0.052
GETKIIYHLDGQETPYLVKLPLPAERVTLADFKGVLQRPSYKFFFKSMDDDFGVVKEEISDDNAKLPCFNGWVVSWLVSA [R72W] | 0.139 ± 0.093
GETKIIYHLDGQETPYLVKLPLPAERVTLADFKGVLQRPSYKFFFKSMDDDFGVVKEEISDDNAKLPCFNGLVVSWLVSA [R72L] | 0.216 ± 0.05
GETKIIYHLDGQETPYLVKLPLPAERVTLADFKGVLQRPSYKFFFKSMDDDFGVVKEEISDDNAKLPCFNGMVVSWLVSA [R72M] | 0.2 ± 0.1
GETKIIYHLDGQETPYLVKLPLPAERVTLADFKGVLQRPSYKFFFKSMDDDFGVVKEEISDDNAKLPCFNGDVVSWLVSA [R72D] | -0.272 ± 0.077
GETKIIYHLDGQETPYLVKLPLPAERVTLADFKGVLQRPSYKFFFKSMDDDFGVVKEEISDDNAKLPCFNGGVVSWLVSA [R72G] | -0.416 ± 0.079
GETKIIYHLDGQETPYLVKLPLPAERVTLADFKGVLQRPSYKFFFKSMDDDFGVVKEEISDDNAKLPCFNGPVVSWLVSA [R72P] | -1.04 ± 0.24
GETKIIYHLDGQETPYLVKLPLPAERVTLADFKGVLQRPSYKFFFKSMDDDFGVVKEEISDDNAKLPCFNGHVVSWLVSA [R72H] | 0.183 ± 0.06
GETKIIYHLDGQETPYLVKLPLPAERVTLADFKGVLQRPSYKFFFKSMDDDFGVVKEEISDDNAKLPCFNGAVVSWLVSA [R72A] | 0.163 ± 0.06
GETKIIYHLDGQETPYLVKLPLPAERVTLADFKGVLQRPSYKFFFKSMDDDFGVVKEEISDDNAKLPCFNIRVVSWLVSA [G71I] | -0.249 ± 0.098
GETKIIYHLDGQETPYLVKLPLPAERVTLADFKGVLQRPSYKFFFKSMDDDFGVVKEEISDDNAKLPCFNRRVVSWLVSA [G71R] | -0.895 ± 0.15
GETKIIYHLDGQETPYLVKLPLPAERVTLADFKGVLQRPSYKFFFKSMDDDFGVVKEEISDDNAKLPCFNYRVVSWLVSA [G71Y] | -0.64 ± 0.11
GETKIIYHLDGQETPYLVKLPLPAERVTLADFKGVLQRPSYKFFFKSMDDDFGVVKEEISDDNAKLPCFNHRVVSWLVSA [G71H] | -0.281 ± 0.12
GETKIIYHLDGQETPYLVKLPLPAERVTLADFKGVLQRPSYKFFFKSMDDDFGVVKEEISDDNAKLPCFNMRVVSWLVSA [G71M] | -1.4 ± 0.48
GETKIIYHLDGQETPYLVKLPLPAERVTLADFKGVLQRPSYKFFFKSMDDDFGVVKEEISDDNAKLPCFNSRVVSWLVSA [G71S] | -0.512 ± 0.087
GETKIIYHLDGQETPYLVKLPLPAERVTLADFKGVLQRPSYKFFFKSMDDDFGVVKEEISDDNAKLPCFNWRVVSWLVSA [G71W] | -0.524 ± 0.21
GETKIIYHLDGQETPYLVKLPLPAERVTLADFKGVLQRPSYKFFFKSMDDDFGVVKEEISDDNAKLPCFNNRVVSWLVSA [G71N] | -0.351 ± 0.086
GETKIIYHLDGQETPYLVKLPLPAERVTLADFKGVLQRPSYKFFFKSMDDDFGVVKEEISDDNAKLPCFNTRVVSWLVSA [G71T] | -0.919 ± 0.19
GETKIIYHLDGQETPYLVKLPLPAERVTLADFKGVLQRPSYKFFFKSMDDDFGVVKEEISDDNAKLPCFNLRVVSWLVSA [G71L] | -0.538 ± 0.1
GETKIIYHLDGQETPYLVKLPLPAERVTLADFKGVLQRPSYKFFFKSMDDDFGVVKEEISDDNAKLPCFNQRVVSWLVSA [G71Q] | -0.763 ± 0.38
GETKIIYHLDGQETPYLVKLPLPAERVTLADFKGVLQRPSYKFFFKSMDDDFGVVKEEISDDNAKLPCFNVRVVSWLVSA [G71V] | -0.888 ± 0.13
